# Reference: patent US11549123B2, “Plant EPSP synthases and methods of use” (PIONEER HI-BRED INTERNATIONAL, INC., priority 2015, dated 2023)
# Legend:
# Conditions in all cases: other: PEP varied; pH 7.0
# [1] = substrate: C=C(OP(=O)(O)O)C(=O)O; assay: EPSPS substrate saturation kinetics, WT-FS-E2; type: biochemical, Zea mays
# Method: (§1) EPSPS activity was determined by quantifying the phosphate generated from the EPSPS reaction. Release of inorganic phosphate was coupled to reaction with 2-amino-6-mercapto-7-methylpurine ribonucleoside, catalyzed by purine-nucleoside phosphorylase (M R Webb, Proc. Natl. Acad. Sci. 89:4884-4887, 1992). The absorbance change that occurs was monitored at 360 nm, where the extinction is 11,200 M^−1 cm^−1, with a Spectramax plate reader (Molecular Devices). To determine kinetic parameters, the varied substrate was present at seven concentrations (the eighth being the blank, containing no substrate) ranging from 4 to 400 uM and the unvaried substrate present at saturation. Six microliters of 50-fold concentrated stock solutions of the varied substrate were placed in the wells of the 96-well assay plate and reactions were started with the addition of a mixture containing 25 mM Hepes, pH 7, 100 mM KCl, 0.3 mM 2-amino-6-mercapto-7-methylpurine ribonucleosde, 1 uM (1 unit/ml) purine-nucleoside phosphorylase (Sigma N8264) and 200 uM of the non-varied substrate. Reactions were monitored with a Spectramax plate reader. […] KI was then calculated from the following form of the Michaelis-Menten equation for competitive inhibition: KI=KM[I]/(KM app−KM) KM approximates the dissociation constant of the enzyme-substrate complex while kcat is the rate of conversion of substrate to product when the substrate concentration is saturating. kcat/KM is a widely accepted parameter for catalytic efficiency when substrate concentration is low (˜KM). […] The parameter kcat/KM×KI is used to quantify both catalytic efficiency and insensitivity and thus the overall fitness of the enzyme.
# (§2) The vector DNA of the library was transformed into the BL21(DE3) Tuner AroA knockout strain and the cells were plated onto M9 medium containing 50 mM glyphosate. A small aliquot of the transformed cells was plated on LB, by which it was determined that 1.1×10^8 colony forming units, or 20% of the theoretical library size, were plated and screened. […]
# [2] = substrate: C=C(OP(=O)(O)O)C(=O)O; assay: EPSPS substrate saturation kinetics, WT-FS-D; type: biochemical, Zea mays
# Method: as §1, with “enzyme. […]” for “enzyme.”
# as §2
# [3] = substrate: C=C(OP(=O)(O)O)C(=O)O; assay: EPSPS substrate saturation kinetics, 868-H6; type: biochemical, Zea mays
# Method: as §1, with “reader. The Michaelis-Menten kinetics protocol of the Spectramax software was customized for the substrate concentrations used. The software returns values of KM and Vmax using the Lineweaver-Burke transformation of the Michaelis-Menten equation. To determine kcat, Vmax (uM/min) was divided by the enzyme concentration (uM).” for “reader.”
# (§3) From the functional diversity identified for each, combinatorial libraries were constructed and screened. […]
# [4] = substrate: C=C(OP(=O)(O)O)C(=O)O; assay: EPSPS substrate saturation kinetics, 123-C1; type: biochemical, Zea mays
# Method: as §1, with “reader. The Michaelis-Menten kinetics protocol of the Spectramax software was customized for the substrate concentrations used. The software returns values of KM and Vmax using the Lineweaver-Burke transformation of the Michaelis-Menten equation. To determine kcat, Vmax (uM/min) was divided by the enzyme concentration (uM).” for “reader.”, “enzyme. […]” for “enzyme.”
# [5] = substrate: C=C(OP(=O)(O)O)C(=O)O; assay: EPSPS substrate saturation kinetics, native sorghum; type: biochemical, Sorghum halepense
# Method: as §1, with “Six microliters of 50-fold concentrated stock solutions of the varied substrate were placed in the wells of the 96-well assay plate and reactions were started with the addition of a mixture containing 25 mM Hepes, pH 7, 100 mM KCl, 0.3 mM 2-amino-6-mercapto-7-methylpurine ribonucleosde, 1 uM (1 unit/ml) purine-nucleoside phosphorylase (Sigma N8264) and 200 uM of the non-varied substrate.” left out
# Native EPSPS amino acid sequences of rice (Oryza sativa) (SEQ ID NO:7), sorghum (Sorghum halepense) (SEQ ID NO:8), and sunflower (Helianthus annus) (SEQ ID NO:9) including the chloroplast transit peptide sequences were assembled and analyzed for mapping the corresponding amino acid mutations from the maize 868-H6. […]
# ChloroP Prediction Server (Emanuelsson, O. et al. 1999. Protein Sci. 8(5):978-84) was used to approximate the amino terminus of the mature EPSPS proteins. […] The synthetic genes were cloned into a plasmid vector and expressed, purified and analyzed as described in Example 1.
# [6] = substrate: C=C(OP(=O)(O)O)C(=O)O; assay: EPSPS substrate saturation kinetics, WT-FS-B; type: biochemical, Zea mays
# Method: as §1, with “enzyme. […]” for “enzyme.”
# as §2
# [7] = substrate: C=C(OP(=O)(O)O)C(=O)O; assay: EPSPS substrate saturation kinetics, 771-C2; type: biochemical, Zea mays
# Method: as §1, with “reader. The Michaelis-Menten kinetics protocol of the Spectramax software was customized for the substrate concentrations used. The software returns values of KM and Vmax using the Lineweaver-Burke transformation of the Michaelis-Menten equation. To determine kcat, Vmax (uM/min) was divided by the enzyme concentration (uM).” for “reader.”
# as §3
protein,measurement,setting,value
Zea mays EPSPS variant WT-FS-E2 (102A 302S 391G 438R I208L) (Zea mays; E301S/E390G/G101A/I207L/V437R) (protein) MAGAEEIVLQPIKEISGTVKLPGSKSLSNRILLLAALSEGTTVVDNLLNSEDVHYMLGALRTLGLSVEADKAAKRAVVVGCGGKFPVEDAKEEVQLFLGNAATAMRPLTAAVTAAGGNATYVLDGVPRMRERPIGDLVVGLKQLGADVDCFLGTDCPPVRVNGIGGLPGGKVKLSGSISSQYLSALLMAAPLALGDVEIEIIDKLISLPYVEMTLRLMERFGVKAEHSDSWDRFYIKGGQKYKSPKNAYVEGDASSASYFLAGAAITGGTVTVEGCGTTSLQGDVKFAEVLEMMGAKVTWTSTSVTVTGPPREPFGRKHLKAIDVNMNKMPDVAMTLAVVALFADGPTAIRDVASWRVKETERMVAIRTELTKLGASVEEGPDYCIITPPGKLNVTAIDTYDDHRMAMAFSLAACAEVPVTIRDPGCTRKTFPDYFDRLSTFVKN,Km,[1],87.7 µM
same,kcat,[1],9.93 s⁻¹
same,kcat/Km,[1],6.80 min^−1uM^−1
Zea mays EPSPS variant WT-FS-D (101S 107L 302S 338S) (Zea mays; A100S/A337S/E301S/P106L) (protein) MAGAEEIVLQPIKEISGTVKLPGSKSLSNRILLLAALSEGTTVVDNLLNSEDVHYMLGALRTLGLSVEADKAAKRAVVVGCGGKFPVEDAKEEVQLFLGNSGTAMRLLTAAVTAAGGNATYVLDGVPRMRERPIGDLVVGLKQLGADVDCFLGTDCPPVRVNGIGGLPGGKVKLSGSISSQYLSALLMAAPLALGDVEIEIIDKLISIPYVEMTLRLMERFGVKAEHSDSWDRFYIKGGQKYKSPKNAYVEGDASSASYFLAGAAITGGTVTVEGCGTTSLQGDVKFAEVLEMMGAKVTWTSTSVTVTGPPREPFGRKHLKAIDVNMNKMPDVAMTLSVVALFADGPTAIRDVASWRVKETERMVAIRTELTKLGASVEEGPDYCIITPPEKLNVTAIDTYDDHRMAMAFSLAACAEVPVTIRDPGCTRKTFPDYFDVLSTFVKN,Km,[2],20.5 µM
same,kcat,[2],30.9 s⁻¹
same,kcat/Km,[2],92.3 min^−1uM^−1
"Zea mays EPSPS variant 868-H6 (A2R, A4W, A72Q, K84R, L98C, G102A, I208L, T279A, E302S, T361S, E391G, D402G, A416G, V438R, T441Q), SEQ ID NO:5 (Zea mays; … (protein) MRGWEEIVLQPIKEISGTVKLPGSKSLSNRILLLAALSEGTTVVDNLLNSEDVHYMLGALRTLGLSVEADKQAKRAVVVGCGGRFPVEDAKEEVQLFCGNAATAMRPLTAAVTAAGGNATYVLDGVPRMRERPIGDLVVGLKQLGADVDCFLGTDCPPVRVNGIGGLPGGKVKLSGSISSQYLSALLMAAPLALGDVEIEIIDKLISLPYVEMTLRLMERFGVKAEHSDSWDRFYIKGGQKYKSPKNAYVEGDASSASYFLAGAAITGGTVTVEGCGTASLQGDVKFAEVLEMMGAKVTWTSTSVTVTGPPREPFGRKHLKAIDVNMNKMPDVAMTLAVVALFADGPTAIRDVASWRVKESERMVAIRTELTKLGASVEEGPDYCIITPPGKLNVTAIDTYGDHRMAMAFSLAACGEVPVTIRDPGCTRKTFPDYFDRLSQFVKN",Km,[3],24.0 µM
same,kcat,[3],6.43 s⁻¹
same,kcat/Km,[3],268000 M⁻¹ s⁻¹
"Zea mays EPSPS variant 123-C1 (A2R, A4W, K84R, L98C, G102A, I208L, K243E, E391P, D402G), SEQ ID NO:6 (Zea mays; A1R/A3W/D401G/E390P/G101A/I207L/K242E/K83R/L97C) (protein) MRGWEEIVLQPIKEISGTVKLPGSKSLSNRILLLAALSEGTTVVDNLLNSEDVHYMLGALRTLGLSVEADKAAKRAVVVGCGGRFPVEDAKEEVQLFCGNAATAMRPLTAAVTAAGGNATYVLDGVPRMRERPIGDLVVGLKQLGADVDCFLGTDCPPVRVNGIGGLPGGKVKLSGSISSQYLSALLMAAPLALGDVEIEIIDKLISLPYVEMTLRLMERFGVKAEHSDSWDRFYIKGGQKYESPKNAYVEGDASSASYFLAGAAITGGTVTVEGCGTTSLQGDVKFAEVLEMMGAKVTWTETSVTVTGPPREPFGRKHLKAIDVNMNKMPDVAMTLAVVALFADGPTAIRDVASWRVKETERMVAIRTELTKLGASVEEGPDYCIITPPPKLNVTAIDTYGDHRMAMAFSLAACAEVPVTIRDPGCTRKTFPDYFDVLSTFVKN",Km,[4],24.2 µM
same,kcat,[4],7.3 s⁻¹
same,kcat/Km,[4],302000 M⁻¹ s⁻¹
"Sorghum halepense EPSPS, native, SEQ ID NO:8 (Sorghum halepense) (protein) AAGAEEIVLQPIKEISGTVKLPGSKSLSNRILLLAALSEGTTVVDNLLNSEDVHYMLGALNTLGLSVEADKVAKRAVVVGCGGKFPVEDAKEEVQLFLGNAGTAMRPLTAAVTAAGGNATYVLDGVPRMRERPIGDLVVGLKQLGADVDCFLGTDCPPVRINGIGGLPGGKVKLSGSISSQYLSALLMAAPLALGDVEIEIIDKLISIPYVEMTLRLMERFGVKAEHSDSWDRFYIKGGQKYKSPKNAYVEGDASSASYFLAGAAITGGTVTVEGCGTTSLQGDVKFAEVLEMMGAKVTWTETSVTVTGPPRQPFGRKHLKAIDVNMNKMPDVAMTLAVVALFADGPTAIRDVASWRVKETERMVAIRTELTKLGASVEEGPDYCIITPPEKLNVTAIDTYDDHRMAMAFSLAACAEVPVTIRDPGCTRKTFPDYFDVLSTFVKN",Km,[5],17.4 µM
same,kcat,[5],50.9 s⁻¹
same,kcat/Km,[5],2.93e+06 M⁻¹ s⁻¹
Zea mays EPSPS variant WT-FS-B (103I 107S 278G 338S) (Zea mays; A337S/P106S/T102I/T277G) (protein) MAGAEEIVLQPIKEISGTVKLPGSKSLSNRILLLAALSEGTTVVDNLLNSEDVHYMLGALRTLGLSVEADKAAKRAVVVGCGGKFPVEDAKEEVQLFLGNAGIAMRSLTAAVTAAGGNATYVLDGVPRMRERPIGDLVVGLKQLGADVDCFLGTDCPPVRVNGIGGLPGGKVKLSGSISSQYLSALLMAAPLALGDVEIEIIDKLISIPYVEMTLRLMERFGVKAEHSDSWDRFYIKGGQKYKSPKNAYVEGDASSASYFLAGAAITGGTVTVEGCGGTSLQGDVKFAEVLEMMGAKVTWTETSVTVTGPPREPFGRKHLKAIDVNMNKMPDVAMTLSVVALFADGPTAIRDVASWRVKETERMVAIRTELTKLGASVEEGPDYCIITPPEKLNVTAIDTYDDHRMAMAFSLAACAEVPVTIRDPGCTRKTFPDYFDVLSTFVKN,Km,[6],27.7 µM
same,kcat,[6],1.62 s⁻¹
same,kcat/Km,[6],3.57 min^−1uM^−1
"Zea mays EPSPS variant 771-C2 (A4W, H54M, L98C, G102A, K173R, I208L, K243E, E302S, T361S, E391P, D402G, A416G, V438R, S440R, T441Q, F442V), SEQ ID NO:4 (Zea … (protein) MAGWEEIVLQPIKEISGTVKLPGSKSLSNRILLLAALSEGTTVVDNLLNSEDVMYMLGALRTLGLSVEADKAAKRAVVVGCGGKFPVEDAKEEVQLFCGNAATAMRPLTAAVTAAGGNATYVLDGVPRMRERPIGDLVVGLKQLGADVDCFLGTDCPPVRVNGIGGLPGGKVRLSGSISSQYLSALLMAAPLALGDVEIEIIDKLISLPYVEMTLRLMERFGVKAEHSDSWDRFYIKGGQKYESPKNAYVEGDASSASYFLAGAAITGGTVTVEGCGTTSLQGDVKFAEVLEMMGAKVTWTSTSVTVTGPPREPFGRKHLKAIDVNMNKMPDVAMTLAVVALFADGPTAIRDVASWRVKESERMVAIRTELTKLGASVEEGPDYCIITPPPKLNVTAIDTYGDHRMAMAFSLAACGEVPVTIRDPGCTRKTFPDYFDRLRQVVKN",Km,[7],21.0 µM
same,kcat,[7],5.8 s⁻¹
same,kcat/Km,[7],275000 M⁻¹ s⁻¹
